Measured values from patent US20200024330A1.

Experiments:
Assay in all cases: cell-based or functional assay
[1] = target: HIV-1 JR-CSF Env N276A (HIV-1 JR-CSF) (UniProt P20871)
[2] = target: HIV-1 JR-CSF Env F210A (HIV-1 JR-CSF) (UniProt P20871)
[3] = target: HIV-1 JR-CSF Env N295A (HIV-1 JR-CSF) (UniProt P20871)
[4] = target: HIV-1 JR-CSF Env R327A (HIV-1 isolate JR-CSF) (UniProt P20871)
[5] = target: Env of the clade C HIV-1 pseudoviruses of the cross-clade 162-pseudovirus panel (n = 27)
[6] = target: Env of all HIV-1 pseudoviruses of the cross-clade 162-pseudovirus panel (n = 162)
[7] = target: HIV-1 JR-CSF Env N355A (HIV-1 isolate JR-CSF) (UniProt P20871)
[8] = target: HIV-1 JR-CSF Env D325A (HIV-1 isolate JR-CSF) (UniProt P20871)
[9] = target: HIV-1 JR-CSF Env I307A (HIV-1 JR-CSF) (UniProt P20871)
[10] = target: HIV-1 JR-CSF Env S387A (HIV-1 (isolate JR-CSF)) (UniProt P20871)
[11] = target: HIV-1 JR-CSF Env H330A (HIV-1 isolate JR-CSF) (UniProt P20871)
[12] = target: HIV-1 JR-CSF Env F317A (HIV-1 isolate JR-CSF) (UniProt P20871)
[13] = target: HIV-1 Env of isolate JR-CSF (HIV-1) (UniProt P20871)
[14] = target: HIV-1 JR-CSF Env I415A (HIV-1 (isolate JR-CSF)) (UniProt P20871)
[15] = target: Env of the clade B HIV-1 pseudoviruses of the cross-clade 162-pseudovirus panel (n = 31)
[16] = target: HIV-1 JR-CSF Env R315A (HIV-1 isolate JR-CSF) (UniProt P20871)
[17] = target: HIV-1 JR-CSF Env I424A (HIV-1 (isolate JR-CSF)) (UniProt P20871)
[18] = target: HIV-1 JR-CSF Env N302A (HIV-1 JR-CSF) (UniProt P20871)
[19] = target: HIV-1 JR-CSF Env R350A (HIV-1 isolate JR-CSF) (UniProt P20871)
[20] = target: HIV-1 JR-CSF Env T297A (HIV-1 JR-CSF) (UniProt P20871)
[21] = target: HIV-1 JR-CSF Env N392Q (HIV-1 (isolate JR-CSF)) (UniProt P20871)
[22] = target: HIV-1 JR-CSF Env N386A (HIV-1 isolate JR-CSF) (UniProt P20871)
[23] = target: HIV-1 JR-CSF Env V292A (HIV-1 JR-CSF) (UniProt P20871)
[24] = target: HIV-1 JR-CSF Env N262A (HIV-1 JR-CSF) (UniProt P20871)
[25] = target: HIV-1 JR-CSF Env T319A (HIV-1 isolate JR-CSF) (UniProt P20871)
[26] = target: HIV-1 JR-CSF Env E321aA (HIV-1 isolate JR-CSF) (UniProt P20871)
[27] = target: HIV-1 JR-CSF Env Q337A (HIV-1 isolate JR-CSF) (UniProt P20871)
[28] = target: HIV-1 JR-CSF Env K421A (HIV-1 (isolate JR-CSF)) (UniProt P20871)
[29] = target: HIV-1 JR-CSF Env R419A (HIV-1 (isolate JR-CSF)) (UniProt P20871)
[30] = target: HIV-1 JR-CSF Env P313A (HIV-1 JR-CSF) (UniProt P20871)
[31] = target: HIV-1 Env of isolate MGRM-C-026 (HIV-1)
[32] = target: HIV-1 JR-CSF Env L416A (HIV-1 (isolate JR-CSF)) (UniProt P20871)
[33] = target: HIV-1 JR-CSF Env N332A (HIV-1 isolate JR-CSF) (UniProt P20871)
[34] = target: HIV-1 JR-CSF Env N241A (HIV-1 JR-CSF) (UniProt P20871)
[35] = target: HIV-1 JR-CSF Env I423A (HIV-1 (isolate JR-CSF)) (UniProt P20871)
[36] = target: Env of the clade AG HIV-1 pseudoviruses of the cross-clade 162-pseudovirus panel (n = 10)
[37] = target: HIV-1 JR-CSF Env R304A (HIV-1 JR-CSF) (UniProt P20871)
[38] = target: Env of the clade D HIV-1 pseudoviruses of the cross-clade 162-pseudovirus panel (n = 25)
[39] = target: HIV-1 JR-CSF Env Q422A (HIV-1 (isolate JR-CSF)) (UniProt P20871)

B1: PGT-123 (antibody, V domains shown)
VH: QLHLQESGPGLVKPPETLSLTCSVSGASINDAYWSWIRQSPGKRPEWVGYVHHSGDTNYNPSLKRRVTFSLDTAKNEVSLKLVDLTAADSATYFCARALHGKRIYGIVALGELFTYFYMDVWGKGTAVTVSS
VL: SSMSVSPGETAKISCGKESIGSRAVQWYQQKPGQPPSLIIYNNQDRPAGVPERFSASPDFRPGTTATLTITNVDAEDEADYYCHIYDARGGTNWVFDRGTTLTVL
Fold IC50 increase relative to wild-type [1]: 1.1 fold
Fold IC50 increase relative to wild-type [2]: 2.8 fold
Fold IC50 increase relative to wild-type [3]: 1.2 fold
Fold IC50 increase relative to wild-type [4]: 1.7 fold
Median IC50 against viruses neutralized with an IC50 <50 µg/ml [5]: 0.01 µg/mL
Median IC50 against viruses neutralized with an IC50 <50 µg/ml [6]: 0.03 µg/mL
Fold IC50 increase relative to wild-type [7]: 0.5 fold
Fold IC50 increase relative to wild-type [8]: 64 fold
Fold IC50 increase relative to wild-type [9]: 5.9 fold
Fold IC50 increase relative to wild-type [10]: 0.9 fold
Fold IC50 increase relative to wild-type [11]: 0.3 fold
Fold IC50 increase relative to wild-type [12]: 3.1 fold
Primary Neutralization Index (B cell culture well 4858 P8) [13]: 1.6
Fold IC50 increase relative to wild-type [14]: 0.4 fold
Median IC50 against viruses neutralized with an IC50 <50 µg/ml [15]: 0.02 µg/mL
Fold IC50 increase relative to wild-type [16]: 0.7 fold
Fold IC50 increase relative to wild-type [17]: 0.5 fold
Fold IC50 increase relative to wild-type [18]: 1.3 fold
Fold IC50 increase relative to wild-type [19]: 0.5 fold
Fold IC50 increase relative to wild-type [20]: 0.3 fold
Fold IC50 increase relative to wild-type [21]: 1 fold
Fold IC50 increase relative to wild-type [22]: 1.4 fold
Fold IC50 increase relative to wild-type [23]: 1.7 fold
Fold IC50 increase relative to wild-type [24]: 0.5 fold
Fold IC50 increase relative to wild-type [25]: 0.4 fold
Fold IC50 increase relative to wild-type [26]: 0.6 fold
Fold IC50 increase relative to wild-type [27]: 0.5 fold
Fold IC50 increase relative to wild-type [28]: 0.9 fold
Fold IC50 increase relative to wild-type [29]: 0.7 fold
Fold IC50 increase relative to wild-type [30]: 0.2 fold
Primary Neutralization Index (B cell culture well 4858 P8) [31]: 33.8
Fold IC50 increase relative to wild-type [32]: 0.9 fold
Fold IC50 increase relative to wild-type [33]: > 200 fold
Fold IC50 increase relative to wild-type [34]: 0.8 fold
Fold IC50 increase relative to wild-type [35]: 1.5 fold
Median IC50 against viruses neutralized with an IC50 <50 µg/ml [36]: 0.61 µg/mL
Fold IC50 increase relative to wild-type [37]: 0.7 fold
Median IC50 against viruses neutralized with an IC50 <50 µg/ml [38]: 0.02 µg/mL
Fold IC50 increase relative to wild-type [39]: 0.8 fold

B2: PGT-125 (antibody, V domains shown)
VH: QSQLQESGPRLVEASETLSLTCNVSGESTGACTYFWGWVRQAPGKGLEWIGSLSHCQSFWGSGWTFHNPSLKSRLTISLDTPKNQVFLKLTSLTAADTATYYCARFDGEVLVYNHWPKPAWVDLWGRGIPVTVSS
VL: QSALTQPPSASGSPGQSITISCNGTATNFVSWYQQFPDKAPKLIIFGVDKRPPGVPDRFSGSRSGTTASLTVSRLQTDDEAVYYCGSLVGNWDVIFGGGTTLTVL
Fold IC50 increase relative to wild-type [1]: 0.9 fold
Fold IC50 increase relative to wild-type [2]: 1.4 fold
Fold IC50 increase relative to wild-type [3]: 0.8 fold
Fold IC50 increase relative to wild-type [4]: 2.1 fold
Median IC50 against viruses neutralized with an IC50 <50 µg/ml [5]: 1.83 µg/mL
Median IC50 against viruses neutralized with an IC50 <50 µg/ml [6]: 0.04 µg/mL
Fold IC50 increase relative to wild-type [7]: 1.2 fold
Fold IC50 increase relative to wild-type [8]: 0.4 fold
Fold IC50 increase relative to wild-type [9]: 5 fold
Fold IC50 increase relative to wild-type [10]: 0.6 fold
Fold IC50 increase relative to wild-type [11]: 0.7 fold
Fold IC50 increase relative to wild-type [12]: 1.8 fold
Polyclonal Transfectant Neutralization Index (well 5123 A6) [13]: 119
Primary Neutralization Index (B cell culture well 5123 A6) [13]: 1730
Fold IC50 increase relative to wild-type [14]: 0.3 fold
Median IC50 against viruses neutralized with an IC50 <50 µg/ml [15]: 0.02 µg/mL
Fold IC50 increase relative to wild-type [16]: 0.9 fold
Fold IC50 increase relative to wild-type [17]: 0.7 fold
Fold IC50 increase relative to wild-type [18]: 0.7 fold
Fold IC50 increase relative to wild-type [19]: 0.6 fold
Fold IC50 increase relative to wild-type [20]: 0.9 fold
Fold IC50 increase relative to wild-type [21]: 1.2 fold
Fold IC50 increase relative to wild-type [22]: 0.8 fold
Fold IC50 increase relative to wild-type [23]: 3.3 fold
Fold IC50 increase relative to wild-type [24]: 0.9 fold
Fold IC50 increase relative to wild-type [25]: 1.1 fold
Fold IC50 increase relative to wild-type [26]: 1 fold
Fold IC50 increase relative to wild-type [27]: 0.8 fold
Fold IC50 increase relative to wild-type [28]: 1.2 fold
Fold IC50 increase relative to wild-type [29]: 1 fold
Fold IC50 increase relative to wild-type [30]: 0.3 fold
Polyclonal Transfectant Neutralization Index (well 5123 A6) [31]: 88.3
Primary Neutralization Index (B cell culture well 5123 A6) [31]: 512
Fold IC50 increase relative to wild-type [32]: 0.8 fold
Fold IC50 increase relative to wild-type [33]: 2 fold
Fold IC50 increase relative to wild-type [34]: 0.5 fold
Fold IC50 increase relative to wild-type [35]: 5 fold
Median IC50 against viruses neutralized with an IC50 <50 µg/ml [36]: 0.01 µg/mL
Fold IC50 increase relative to wild-type [37]: 1.9 fold
Median IC50 against viruses neutralized with an IC50 <50 µg/ml [38]: 0.09 µg/mL
Fold IC50 increase relative to wild-type [39]: 1.2 fold

B3: PGT-126 (antibody, V domains shown)
VH: QPQLQESGPGLVEASETLSLTCTVSGDSTAACDYFWGWVRQPPGKGLEWIGGLSHCAGYYNTGWTYHNPSLKSRLTISLDTPKNQVFLKLNSVTAADTAIYYCARFDGEVLVYHDWPKPAWVDLWGRGTLVTVSS
VL: QSALTQPPSASGSPGQSISISCTGTSNRFVSWYQQHPGKAPKLVIYGVNKRPSGVPDRFSGSKSGNTASLTVSGLQTDDEAVYYCSSLVGNWDVIFGGGTKLTVL
Fold IC50 increase relative to wild-type [1]: 0.9 fold
Fold IC50 increase relative to wild-type [2]: 1.5 fold
Fold IC50 increase relative to wild-type [3]: 0.9 fold
Fold IC50 increase relative to wild-type [4]: 2.2 fold
Median IC50 against viruses neutralized with an IC50 <50 µg/ml [5]: 0.18 µg/mL
Median IC50 against viruses neutralized with an IC50 <50 µg/ml [6]: 0.04 µg/mL
Fold IC50 increase relative to wild-type [7]: 0.2 fold
Fold IC50 increase relative to wild-type [8]: 0.5 fold
Fold IC50 increase relative to wild-type [9]: 1.8 fold
Fold IC50 increase relative to wild-type [10]: 0.6 fold
Fold IC50 increase relative to wild-type [11]: 0.5 fold
Fold IC50 increase relative to wild-type [12]: 1 fold
Polyclonal Transfectant Neutralization Index (well 5141 B17) [13]: 102
Primary Neutralization Index (B cell culture well 5141 B17) [13]: 1410
Fold IC50 increase relative to wild-type [14]: 0.3 fold
Median IC50 against viruses neutralized with an IC50 <50 µg/ml [15]: 0.02 µg/mL
Fold IC50 increase relative to wild-type [16]: 1 fold
Fold IC50 increase relative to wild-type [17]: 0.4 fold
Fold IC50 increase relative to wild-type [18]: 0.9 fold
Fold IC50 increase relative to wild-type [19]: 0.7 fold
Fold IC50 increase relative to wild-type [20]: 0.8 fold
Fold IC50 increase relative to wild-type [21]: 1.6 fold
Fold IC50 increase relative to wild-type [22]: 0.9 fold
Fold IC50 increase relative to wild-type [23]: 5 fold
Fold IC50 increase relative to wild-type [24]: 1 fold
Fold IC50 increase relative to wild-type [25]: 0.8 fold
Fold IC50 increase relative to wild-type [26]: 0.6 fold
Fold IC50 increase relative to wild-type [27]: 0.4 fold
Fold IC50 increase relative to wild-type [28]: 0.7 fold
Fold IC50 increase relative to wild-type [29]: 1.2 fold
Fold IC50 increase relative to wild-type [30]: 0.4 fold
Polyclonal Transfectant Neutralization Index (well 5141 B17) [31]: 102
Primary Neutralization Index (B cell culture well 5141 B17) [31]: 654
Fold IC50 increase relative to wild-type [32]: 0.8 fold
Fold IC50 increase relative to wild-type [33]: 181 fold
Fold IC50 increase relative to wild-type [34]: 0.6 fold
Fold IC50 increase relative to wild-type [35]: 1.1 fold
Median IC50 against viruses neutralized with an IC50 <50 µg/ml [36]: 0.03 µg/mL
Fold IC50 increase relative to wild-type [37]: 1.8 fold
Median IC50 against viruses neutralized with an IC50 <50 µg/ml [38]: 0.04 µg/mL
Fold IC50 increase relative to wild-type [39]: 1.1 fold
